Literature values as cited in paper PMC10343017.

Columns and labels:
CMG2 (Homo sapiens) = CMG2 (Homo sapiens) (UniProt P58335)
TEM8 (Homo sapiens) = TEM8 (Homo sapiens) (UniProt Q9H6X2)

For “protective antigen (from UniProt P13423)”, the Kd (CMG2 (Homo sapiens)) is listed as 0.00078 µM and the Kd (TEM8 (Homo sapiens)) is listed as 0.13 µM.
